Assay [1] addresses RNF167-ECD (transmembrane PA-TM-RING E3 ligase RNF167, extracellular domain) (human) (UniProt Q9H6Y7). Description: SPR; Biacore T100; biotinylated ligand captured on a streptavidin (SA) Series S chip (~100-200 RU); non-biotinylated analyte in twofold dilutions in HBS-P+; 60 s injection at 30 ul/min, 240 s dissociation; regeneration 2 x 10 sec 2M MgCl2; KD from the fit at equilibrium (steady state).

The target in assay [2] is T1, growth arrest specific 1 protein (human, UniProt P54826 40-317, biotin (biotinylated in vitro with BirA) where used on beads or as tetramer).
T1 construct: growth arrest specific 1, human; also called GAS1; source: Expi293F, purified (Ni-NTA, SEC); not shown: AviTag, C-terminal, kept
T1 sequence (looked up): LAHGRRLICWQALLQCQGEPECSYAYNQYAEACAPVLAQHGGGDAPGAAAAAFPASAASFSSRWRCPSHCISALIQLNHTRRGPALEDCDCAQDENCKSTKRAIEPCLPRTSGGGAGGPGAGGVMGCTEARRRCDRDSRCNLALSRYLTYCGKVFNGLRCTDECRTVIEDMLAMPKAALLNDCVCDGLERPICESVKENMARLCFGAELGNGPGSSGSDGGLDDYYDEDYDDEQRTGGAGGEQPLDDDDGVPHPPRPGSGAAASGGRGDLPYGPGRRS
Description: SPR; Biacore T100; biotinylated receptor ECD or hit protein captured on a streptavidin chip (~100-200 RU), non-biotinylated secreted ligand as analyte in twofold dilutions; HBS-P+ buffer; 1:1 Langmuir model or equilibrium fit. The settings on record: both partners purified. On the technique in general: Surface plasmon resonance follows binding to a sensor surface in real time, without labels.

Assay [3] addresses T2, human PTPRU-ECD (human, UniProt Q92729 19-749, biotin where captured on the streptavidin chip).
T2 chain: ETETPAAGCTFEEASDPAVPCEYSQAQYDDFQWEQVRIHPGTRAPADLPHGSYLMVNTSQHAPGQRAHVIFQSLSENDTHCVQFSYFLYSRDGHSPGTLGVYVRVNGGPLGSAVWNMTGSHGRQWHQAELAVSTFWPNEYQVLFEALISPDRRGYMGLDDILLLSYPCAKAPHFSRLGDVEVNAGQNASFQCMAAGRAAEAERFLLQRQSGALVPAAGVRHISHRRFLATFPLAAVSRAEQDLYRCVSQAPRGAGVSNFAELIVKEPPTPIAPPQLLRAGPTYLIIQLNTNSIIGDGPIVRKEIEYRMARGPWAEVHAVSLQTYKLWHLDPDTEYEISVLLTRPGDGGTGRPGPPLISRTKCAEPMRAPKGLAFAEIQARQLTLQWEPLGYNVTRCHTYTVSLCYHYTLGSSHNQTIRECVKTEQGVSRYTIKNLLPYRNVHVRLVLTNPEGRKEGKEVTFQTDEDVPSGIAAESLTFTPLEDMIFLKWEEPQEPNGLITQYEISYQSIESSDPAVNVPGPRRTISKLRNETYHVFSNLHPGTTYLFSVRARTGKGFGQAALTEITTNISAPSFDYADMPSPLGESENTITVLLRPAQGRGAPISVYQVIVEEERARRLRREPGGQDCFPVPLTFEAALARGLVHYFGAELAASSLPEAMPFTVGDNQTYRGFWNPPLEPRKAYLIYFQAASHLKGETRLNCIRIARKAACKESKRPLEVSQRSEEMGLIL
Description: SPR.

Another assay addresses T3, PTPRF ECD (human, UniProt P10586 30-1263, biotin where captured on the streptavidin chip).
T3 construct: PTPRF, human, extracellular domain; construct of the ECD is not described; also called PRPRF; source: Expi293F, purified (Ni-NTA, SEC)
Description: SPR; Biacore T100; biotinylated secreted ligand (OMG, PTN or MDK) captured on a streptavidin chip, receptor ECD as analyte; HBS-P+ buffer. The settings on record: both partners purified.

A further assay concerns the target T4, PTPRS ECD (human, UniProt Q13332 30-1282, biotin where captured on the streptavidin chip).
T4 construct: PTPRS, human, extracellular domain; construct of the ECD is not described; source: Expi293F, purified (Ni-NTA, SEC)
T4 sequence (looked up): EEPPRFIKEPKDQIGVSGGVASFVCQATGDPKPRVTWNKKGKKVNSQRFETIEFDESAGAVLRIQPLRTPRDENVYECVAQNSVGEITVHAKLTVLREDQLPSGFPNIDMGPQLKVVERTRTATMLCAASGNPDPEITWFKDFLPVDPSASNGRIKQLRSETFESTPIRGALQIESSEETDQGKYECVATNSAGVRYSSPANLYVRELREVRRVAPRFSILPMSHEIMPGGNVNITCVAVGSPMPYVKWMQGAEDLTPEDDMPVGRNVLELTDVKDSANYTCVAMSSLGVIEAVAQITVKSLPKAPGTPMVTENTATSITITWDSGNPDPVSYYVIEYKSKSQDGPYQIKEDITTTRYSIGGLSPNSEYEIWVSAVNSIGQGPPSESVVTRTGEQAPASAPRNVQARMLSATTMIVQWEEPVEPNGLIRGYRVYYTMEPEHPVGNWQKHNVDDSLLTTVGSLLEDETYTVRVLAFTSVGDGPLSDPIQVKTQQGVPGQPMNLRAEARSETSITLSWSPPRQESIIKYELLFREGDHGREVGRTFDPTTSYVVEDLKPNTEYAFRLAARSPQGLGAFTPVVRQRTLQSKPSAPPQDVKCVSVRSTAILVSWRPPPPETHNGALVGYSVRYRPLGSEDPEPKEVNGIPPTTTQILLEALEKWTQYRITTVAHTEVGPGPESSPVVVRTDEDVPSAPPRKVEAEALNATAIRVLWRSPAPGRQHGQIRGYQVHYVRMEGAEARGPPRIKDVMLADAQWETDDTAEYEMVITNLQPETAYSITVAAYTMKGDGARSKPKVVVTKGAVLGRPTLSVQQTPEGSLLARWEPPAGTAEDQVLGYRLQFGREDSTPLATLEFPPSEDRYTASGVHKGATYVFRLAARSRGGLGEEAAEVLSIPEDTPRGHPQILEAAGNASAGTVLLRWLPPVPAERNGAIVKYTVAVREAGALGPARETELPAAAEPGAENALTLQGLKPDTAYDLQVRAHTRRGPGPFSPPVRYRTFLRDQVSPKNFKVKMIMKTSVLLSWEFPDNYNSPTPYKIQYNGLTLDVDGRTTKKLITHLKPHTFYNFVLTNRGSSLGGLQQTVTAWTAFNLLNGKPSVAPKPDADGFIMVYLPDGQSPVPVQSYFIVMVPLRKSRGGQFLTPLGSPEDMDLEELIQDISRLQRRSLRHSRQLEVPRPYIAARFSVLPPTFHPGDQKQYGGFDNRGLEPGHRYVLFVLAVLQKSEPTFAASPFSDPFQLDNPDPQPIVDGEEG
The assay is described as above. The settings on record: both partners purified.

A further assay concerns the target T5, PTPRD ECD (human, UniProt P23468 21-1265, biotin where captured on the streptavidin chip).
T5 construct: PTPRD, human, extracellular domain; construct of the ECD is not described; source: Expi293F, purified (Ni-NTA, SEC)
The assay is described as above. The settings on record: both partners purified.

Assay [4] has as its target T6, human PTPRU-ECD (human, UniProt Q92729 19-749, biotin where captured on the streptavidin chip).
T6 construct: PTPRU, human, extracellular domain; construct of the ECD is not described; source: Expi293F, purified (Ni-NTA, SEC)
T6 sequence (looked up): T2 chain
Description: SPR; Biacore T100; biotinylated receptor ECD or hit protein captured on a streptavidin chip (~100-200 RU), non-biotinylated secreted ligand as analyte in twofold dilutions; HBS-P+ buffer; 1:1 Langmuir model or equilibrium fit. The settings on record: both partners purified.

The target of assay [5] is T7, PTPRU-ECD (receptor protein tyrosine phosphatase U, extracellular domain) (human, UniProt Q92729 19-749, biotin (BirA biotinylation; captured on streptavidin chip)).
T7 construct: receptor-type protein tyrosine phosphatase U (PTPRU, R2B subfamily), human, extracellular domain; source: Expi293F, purified (Ni-NTA, SEC), biotinylated in vitro with BirA
T7 sequence (looked up): T2 chain
The experiment in a line: SPR; Biacore T100; biotinylated ligand captured on a streptavidin (SA) Series S chip (~100-200 RU); non-biotinylated analyte in twofold dilutions in HBS-P+; 60 s injection at 30 ul/min, 240 s dissociation; regeneration 2 x 10 sec 2M MgCl2; kinetic fit with a 1:1 binding (Langmuir) model. The conditions noted are these: both partners purified.

The target of assay [6] is T7, PTPRU-ECD (receptor protein tyrosine …). The description is as above. The conditions noted are these: both partners purified. This is another data set of the same source.

Usually Kd stands for a measure of binding affinity in units of concentration. The low end stands for a tighter complex, the high end for a looser complex. As usually defined, the koff is the first-order rate constant of dissociation. Usually kon stands for a measure of how fast the partners come together. Higher therefore signals fast association.

T5 sequence (P23468 21-1265): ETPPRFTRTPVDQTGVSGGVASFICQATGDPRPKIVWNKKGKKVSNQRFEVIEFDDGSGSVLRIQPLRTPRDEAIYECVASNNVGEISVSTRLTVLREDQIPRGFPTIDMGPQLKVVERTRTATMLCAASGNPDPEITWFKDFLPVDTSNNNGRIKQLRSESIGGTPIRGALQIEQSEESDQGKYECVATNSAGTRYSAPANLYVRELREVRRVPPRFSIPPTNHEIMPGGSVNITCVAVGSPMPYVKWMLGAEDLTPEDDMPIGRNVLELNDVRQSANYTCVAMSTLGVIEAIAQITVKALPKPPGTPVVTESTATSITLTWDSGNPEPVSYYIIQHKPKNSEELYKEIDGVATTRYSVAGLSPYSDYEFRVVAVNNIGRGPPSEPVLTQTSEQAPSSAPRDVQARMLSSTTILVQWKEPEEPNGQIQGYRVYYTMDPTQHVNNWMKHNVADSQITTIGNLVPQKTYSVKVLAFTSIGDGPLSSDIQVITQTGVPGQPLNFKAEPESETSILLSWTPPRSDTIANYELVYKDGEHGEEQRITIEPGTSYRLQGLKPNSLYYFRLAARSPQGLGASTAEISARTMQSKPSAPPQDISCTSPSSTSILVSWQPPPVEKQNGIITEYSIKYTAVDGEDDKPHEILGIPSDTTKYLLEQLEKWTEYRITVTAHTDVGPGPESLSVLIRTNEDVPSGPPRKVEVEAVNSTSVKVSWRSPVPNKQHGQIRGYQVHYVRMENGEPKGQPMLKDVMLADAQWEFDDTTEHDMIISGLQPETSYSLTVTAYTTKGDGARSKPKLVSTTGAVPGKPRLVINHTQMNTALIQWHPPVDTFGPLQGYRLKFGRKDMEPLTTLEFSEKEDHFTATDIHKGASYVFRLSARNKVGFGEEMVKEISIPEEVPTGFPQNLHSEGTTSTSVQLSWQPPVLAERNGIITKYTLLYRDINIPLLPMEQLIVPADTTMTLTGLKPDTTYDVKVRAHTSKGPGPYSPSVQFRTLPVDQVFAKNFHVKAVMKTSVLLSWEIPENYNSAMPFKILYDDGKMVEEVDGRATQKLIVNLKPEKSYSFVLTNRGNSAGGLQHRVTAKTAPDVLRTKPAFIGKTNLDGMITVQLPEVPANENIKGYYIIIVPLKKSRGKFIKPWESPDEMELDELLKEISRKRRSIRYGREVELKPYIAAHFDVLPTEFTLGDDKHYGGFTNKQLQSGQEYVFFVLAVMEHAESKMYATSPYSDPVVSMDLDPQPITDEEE

Regarding “TAFA-2 (FAM19A2; chemokine-like family member 2) (from UniProt Q8N3H0 31-131) (ligand)”, the Kd in assay [1] came out at 314000 nM.

B1: PTPRA-ECD (domain or fragment, human, UniProt P18433 20-151, looked up)
chain: NNATTVAPSVGITRLINSSTAEPVKEEAKTSNPTSSLTSLSVAPTFSPNITLGPTYLTTVNSSDSDNGTTRTASTNSIGITISPNGTWLPDNQFTDARTEPWEGNSSTAATTPETFPPSGNSDSKDRRDETP
modifications: biotin (captured on the streptavidin chip)
notes: PTPRA, human, extracellular domain; construct of the ECD is not described; source: Expi293F, purified (Ni-NTA, SEC)
In turn, B1 displayed a Kd in assay [2] of around 1000 nM.

B2: oligodendrocyte-myelin glycoprotein (ligand, human, UniProt P23515 25-417, looked up)
chain: ICPLQCICTERHRHVDCSGRNLSTLPSGLQENIIHLNLSYNHFTDLHNQLTQYTNLRTLDISNNRLESLPAHLPRSLWNMSAANNNIKLLDKSDTAYQWNLKYLDVSKNMLEKVVLIKNTLRSLEVLNLSSNKLWTVPTNMPSKLHIVDLSNNSLTQILPGTLINLTNLTHLYLHNNKFTFIPDQSFDQLFQLQEITLYNNRWSCDHKQNITYLLKWMMETKAHVIGTPCSTQISSLKEHNMYPTPSGFTSSLFTVSGMQTVDTINSLSVVTQPKVTKIPKQYRTKETTFGATLSKDTTFTSTDKAFVPYPEDTSTETINSHEAAAATLTIHLQDGMVTNTSLTSSTKSSPTPMTLSITSGMPNNFSEMPQQSTTLNLWREETTTNVKTPLPS
modifications: biotin (biotinylated in vitro with BirA) where used on beads or captured on the chip
notes: oligodendrocyte-myelin glycoprotein, human; also called OMG; source: Expi293F, purified (Ni-NTA, SEC); not shown: AviTag, C-terminal, kept
In the assay with human PTPRU-ECD [3], B2 gave a koff of 0.00042 s⁻¹. The binding result with PTPRF ECD, with PTPRS ECD and in the assay with PTPRD ECD was “binds” each time. The Kd with human PTPRU-ECD [4] is around 70 nM.

B3: oligodendrocyte-myelin glycoprotein (OMG) (ligand, human, UniProt P23515 25-417, looked up)
chain: B2 chain
notes: oligodendrocyte-myelin glycoprotein (OMG), human; source: Expi293F, purified (Ni-NTA, SEC), not biotinylated (SPR analyte)
In assay [5], B3 registered a Kd of 70.6 nM, an off-rate (koff) of 0.000472 s⁻¹ and a kon of 6690 M⁻¹ s⁻¹.

B4: Osteocrin (ligand, human, UniProt P61366 28-133, looked up)
chain: VDVTTTEAFDSGVIDVQSTPTVREEKSATDLTAKLLLLDELVSLENDVIETKKKRSFSGFGSPLDRLSAGSVDHKGKQRKVVDHPKRRFGIPMDRIGRNRLSNSRG
modifications: biotin (biotinylated in vitro with BirA) where used on beads
notes: Osteocrin, human; also called OSTN; Musclin; source: Expi293F, purified (Ni-NTA, SEC); not shown: AviTag, C-terminal, kept
B4 gave a koff with human PTPRU-ECD [3] of 0.0036 s⁻¹. This molecule yielded a Kd with human PTPRU-ECD [4] of around 12 nM.

B5: Osteocrin (OSTN) (ligand, human, UniProt P61366 28-133, looked up)
chain: B4 chain
notes: Osteocrin (OSTN, Musclin), human; also called Musclin; source: Expi293F, purified (Ni-NTA, SEC), not biotinylated (SPR analyte)
In [6], B5 yielded a Kd of 12.7 nM, an off-rate constant (koff) of 0.00368 s⁻¹ and an association rate constant (kon) of 290000 M⁻¹ s⁻¹.

Source of the values: publication PMC9578707, “Identification of orphan ligand-receptor relationships using a cell-based CRISPRa enrichment screening platform” (eLife, 2022).
